Experiments:
Monkey CD3 = target: T1, Monkey CD3 (monkey); assay: flow cytometry, monkey T cells
T1 construct: whole, on cells; also called CD3 of monkey CD3 positive T cells

Human BCMA = target: T2, Human BCMA (human, UniProt Q02223 1-54); assay: flow cytometry, human tumor cells (table of the BCMA series)
T2 sequence: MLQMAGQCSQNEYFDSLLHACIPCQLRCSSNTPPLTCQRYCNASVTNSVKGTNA
Text: 1) Cell preparation: T cells isolated from CD3-positive human whole blood were used for a CD3 end affinity detection of multifunctional antibody molecule; positive tumor cells of corresponding antigen were used for detecting affinity of tumor antigen; for example, CD38-positive MM. 1S cells (purchased from the Cell Resource Center of Shanghai Institutes for Biological Sciences, Chinese Academy of Sciences) or RPMI 8226 cells (purchased from the Cell Resource Center of Shanghai Institutes for Biological Sciences, Chinese Academy of Sciences) were used for CD38 antigen detection, and PD-L1 positive H358 cells (purchased from the Cell Resource Center of Shanghai Institutes for Biological Sciences, Chinese Academy of Sciences) were used for PD-L1 antigen detection, and so on. The cells were resuspended with 1% FBS-PBS, adjusted to a density of 4×10⁶/ml, and 50 μl of cells were taken from each well, and then plated at 2×10⁵ per well. Cell plating was operated on ice
2) Addition of the antibody: according to the experimental design, the antibody was diluted gradually, and dilution of antibody was operated on ice. For example, the initial concentration of antibody for dilution was 3000 nM, and the antibody was diluted by 3 times with 11 concentration gradients. The diluted antibody was added to a cell well at 50 μl per well, mixed well, and shaked and incubated at 4° C. 1100 rpm/min for 2 h; after washing, the cells were resuspend in 1% FBS-PBS, and a diluted secondary antibody PE anti-human IgG FC (Biolegend, 409304) was added with a final concentration of 8 ug/ml and a volume of 50 μl/well. At the same time, a well only added with cells and secondary antibody was set as a control, the components were mixed well, and incubated under shaking at 1100 rpm/min at 4° C. for 1 h;
5) Data analysis: the data was analyzed by a flow analysis software FlowJo 7.6 thereby obtaining an average fluorescence intensity of the specific antibody concentration, plotted by a Graphpad Prism 5 with the antibody concentration (nM) as an abscissa and the average fluorescence intensity as an ordinate; the EC50 value was calculated by the method of One site—Specific binding, and the EC50 value indicated the cell affinity of the antibody to the corresponding target antigen.

Human CD3ε = target: T3, Human CD3ε (human, UniProt P07766 23-126); assay: flow cytometry, human T cells
T3 construct: CD3 on T cells isolated from human whole blood
In short: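 Mean fluorescence intensity by flow cytometry was plotted against antibody concentration; EC50 came from a one site–specific binding fit. Cells (2×10⁵/well) were incubated with 11-point, 3-fold antibody dilutions starting at 3000 nM for 2 h at 4° C, then with PE anti-human IgG Fc for 1 h.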

B1: M2IC-FES (bispecific antibody, human IgG1, kappa)
chain: EVKLDETGGGLVQPGRPMKLSCVASGFTFSDYWMNWVRQSPEKGLEWVAQIRNKPYNYETYYSDSVKGRFTISRDDSKSSVYLQMNNLRVEDMGIYYCTGSYYGMDYWGQGTSVTVSSASTKGPSVFPLAPSSKSTSGGTAALGCLVKDYFPEPVTVSWNSGALTSGVHTFPAVLQSSGLYSLSSVVTVPSSSLGTQTYICNVNHKPSNTKVDKKVEPKSCDKTHTGGGSAAAQVQLVESGGGVVQPGRSLRLSCAASGFTFSTYAMNWVRQAPGKGLEWVARIRSKYNNYATYYADSVKDRFTISRDDSKNTLYLQMNSLRAEDTAVYYCARHGNFGNSYVSWFAYWGQGTLVTVSSGGGGSGGGGSGGGGSQTVVTQEPSLTVSPGGTVTLTCRSSTGAVTTSNYANWVQQKPGQAPRGLIGGTNKRAPGVPARFSGSLLGGKAALTLSGVQPEDEAEYYCALWYSNLWVFGGGTKVEIKGGGGSDKTHTCPPCPAPEFEGGPSVFLFPPKPKDTLMISRTPEVTCVVVDVSHEDPEVKFNWYVDGVEVHNAKTKPREEQYNSTYRVVSVLTVLHQDWLNGKEYKCKVSNKALPASIEKTISKAKGQPREPQVYTLPPCRDELTKNQVSLWCLVKGFYPSDIAVEWESNGQPENNYKTTPPVLDSDGSFFLYSKLTVDKSRWQQGNVFSCSVMHEALHNHYTQKSLSLSPGK
heavy: EVKLDETGGGLVQPGRPMKLSCVASGFTFSDYWMNWVRQSPEKGLEWVAQIRNKPYNYETYYSDSVKGRFTISRDDSKSSVYLQMNNLRVEDMGIYYCTGSYYGMDYWGQGTSVTVSSASTKGPSVFPLAPSSKSTSGGTAALGCLVKDYFPEPVTVSWNSGALTSGVHTFPAVLQSSGLYSLSSVVTVPSSSLGTQTYICNVNHKPSNTKVDKKVEPKSCDKTHTCPPCPAPEFEGGPSVFLFPPKPKDTLMISRTPEVTCVVVDVSHEDPEVKFNWYVDGVEVHNAKTKPREEQYNSTYRVVSVLTVLHQDWLNGKEYKCKVSNKALPASIEKTISKAKGQPREPQVCTLPPSRDELTKNQVSLSCAVKGFYPSDIAVEWESNGQPENNYKTTPPVLDSDGSFFLVSKLTVDKSRWQQGNVFSCSVMHEALHNRFTQKSLSLSPGK
light: DVVMTQTPLSLPVSLGDQASISCRSSQSLVHSNGNTYLRWYLQKPGQSPKVLIYKVSNRFSGVPDRFSGSGSGTDFTLKISRVEAEDLGVYFCSQSTHVPWTFGGGTKLEIKRTVAAPSVFIFPPSDEQLKSGTASVVCLLNNFYPREAKVQWKVDNALQSGNSQESVTEQDSKDSTYSLSSTLTLSKADYEKHKVYACEVTHQGLSSPVTKSFNRGEC
notes: structure 2 isotype control; CH2 FES
B1 was tested, and the EC50 (Monkey CD3) was 506 nM, the binding result (Human BCMA) was “no binding” and the EC50 (Human CD3ε) was 411 nM.

B2: M2IC-G2 (bispecific antibody, human IgG1, kappa)
chain: EVKLDETGGGLVQPGRPMKLSCVASGFTFSDYWMNWVRQSPEKGLEWVAQIRNKPYNYETYYSDSVKGRFTISRDDSKSSVYLQMNNLRVEDMGIYYCTGSYYGMDYWGQGTSVTVSSASTKGPSVFPLAPSSKSTSGGTAALGCLVKDYFPEPVTVSWNSGALTSGVHTFPAVLQSSGLYSLSSVVTVPSSSLGTQTYICNVNHKPSNTKVDKKVEPKSCDKTHTGGGSAAAQVQLVESGGGVVQPGRSLRLSCAASGFTFSTYAMNWVRQAPGKGLEWVARIRSKYNNYATYYADSVKDRFTISRDDSKNTLYLQMNSLRAEDTAVYYCARHGNFGNSYVSWFAYWGQGTLVTVSSGGGGSGGGGSGGGGSQTVVTQEPSLTVSPGGTVTLTCRSSTGAVTTSNYANWVQQKPGQAPRGLIGGTNKRAPGVPARFSGSLLGGKAALTLSGVQPEDEAEYYCALWYSNLWVFGGGTKVEIKGGGGSDKTHTCPPCPAPPVAGPSVFLFPPKPKDTLMISRTPEVTCVVVDVSHEDPEVQFNWYVDGVEVHNAKTKPREEQFNSTFRVVSVLTVVHQDWLNGKEYKCKVSNKGLPAPIEKTISKTKGQPREPQVYTLPPCRDELTKNQVSLWCLVKGFYPSDIAVEWESNGQPENNYKTTPPVLDSDGSFFLYSKLTVDKSRWQQGNVFSCSVMHEALHNHYTQKSLSLSPGK
heavy: EVKLDETGGGLVQPGRPMKLSCVASGFTFSDYWMNWVRQSPEKGLEWVAQIRNKPYNYETYYSDSVKGRFTISRDDSKSSVYLQMNNLRVEDMGIYYCTGSYYGMDYWGQGTSVTVSSASTKGPSVFPLAPSSKSTSGGTAALGCLVKDYFPEPVTVSWNSGALTSGVHTFPAVLQSSGLYSLSSVVTVPSSSLGTQTYICNVNHKPSNTKVDKKVEPKSCDKTHTCPPCPAPPVAGPSVFLFPPKPKDTLMISRTPEVTCVVVDVSHEDPEVQFNWYVDGVEVHNAKTKPREEQFNSTFRVVSVLTVVHQDWLNGKEYKCKVSNKGLPAPIEKTISKTKGQPREPQVCTLPPSRDELTKNQVSLSCAVKGFYPSDIAVEWESNGQPENNYKTTPPVLDSDGSFFLVSKLTVDKSRWQQGNVFSCSVMHEALHNRFTQKSLSLSPGK
light: DVVMTQTPLSLPVSLGDQASISCRSSQSLVHSNGNTYLRWYLQKPGQSPKVLIYKVSNRFSGVPDRFSGSGSGTDFTLKISRVEAEDLGVYFCSQSTHVPWTFGGGTKLEIKRTVAAPSVFIFPPSDEQLKSGTASVVCLLNNFYPREAKVQWKVDNALQSGNSQESVTEQDSKDSTYSLSSTLTLSKADYEKHKVYACEVTHQGLSSPVTKSFNRGEC
notes: structure 2 isotype control; CH2 G2CH2
For B2, the EC50 (Monkey CD3) was 488 nM, the binding result (Human BCMA) was “no binding” and the EC50 (Human CD3ε) was 408 nM.

B3: M2IC-NA (bispecific antibody, human IgG1, kappa, N297A)
chain: EVKLDETGGGLVQPGRPMKLSCVASGFTFSDYWMNWVRQSPEKGLEWVAQIRNKPYNYETYYSDSVKGRFTISRDDSKSSVYLQMNNLRVEDMGIYYCTGSYYGMDYWGQGTSVTVSSASTKGPSVFPLAPSSKSTSGGTAALGCLVKDYFPEPVTVSWNSGALTSGVHTFPAVLQSSGLYSLSSVVTVPSSSLGTQTYICNVNHKPSNTKVDKKVEPKSCDKTHTGGGSAAAQVQLVESGGGVVQPGRSLRLSCAASGFTFSTYAMNWVRQAPGKGLEWVARIRSKYNNYATYYADSVKDRFTISRDDSKNTLYLQMNSLRAEDTAVYYCARHGNFGNSYVSWFAYWGQGTLVTVSSGGGGSGGGGSGGGGSQTVVTQEPSLTVSPGGTVTLTCRSSTGAVTTSNYANWVQQKPGQAPRGLIGGTNKRAPGVPARFSGSLLGGKAALTLSGVQPEDEAEYYCALWYSNLWVFGGGTKVEIKGGGGSDKTHTCPPCPAPELLGGPSVFLFPPKPKDTLMISRTPEVTCVVVDVSHEDPEVKFNWYVDGVEVHNAKTKPREEQYASTYRVVSVLTVLHQDWLNGKEYKCKVSNKALPAPIEKTISKAKGQPREPQVYTLPPCRDELTKNQVSLWCLVKGFYPSDIAVEWESNGQPENNYKTTPPVLDSDGSFFLYSKLTVDKSRWQQGNVFSCSVMHEALHNHYTQKSLSLSPGK
heavy: EVKLDETGGGLVQPGRPMKLSCVASGFTFSDYWMNWVRQSPEKGLEWVAQIRNKPYNYETYYSDSVKGRFTISRDDSKSSVYLQMNNLRVEDMGIYYCTGSYYGMDYWGQGTSVTVSSASTKGPSVFPLAPSSKSTSGGTAALGCLVKDYFPEPVTVSWNSGALTSGVHTFPAVLQSSGLYSLSSVVTVPSSSLGTQTYICNVNHKPSNTKVDKKVEPKSCDKTHTCPPCPAPELLGGPSVFLFPPKPKDTLMISRTPEVTCVVVDVSHEDPEVKFNWYVDGVEVHNAKTKPREEQYASTYRVVSVLTVLHQDWLNGKEYKCKVSNKALPAPIEKTISKAKGQPREPQVCTLPPSRDELTKNQVSLSCAVKGFYPSDIAVEWESNGQPENNYKTTPPVLDSDGSFFLVSKLTVDKSRWQQGNVFSCSVMHEALHNRFTQKSLSLSPGK
light: DVVMTQTPLSLPVSLGDQASISCRSSQSLVHSNGNTYLRWYLQKPGQSPKVLIYKVSNRFSGVPDRFSGSGSGTDFTLKISRVEAEDLGVYFCSQSTHVPWTFGGGTKLEIKRTVAAPSVFIFPPSDEQLKSGTASVVCLLNNFYPREAKVQWKVDNALQSGNSQESVTEQDSKDSTYSLSSTLTLSKADYEKHKVYACEVTHQGLSSPVTKSFNRGEC
notes: structure 2 isotype control; CH2 N297A
For B3, the EC50 (Monkey CD3) was 561 nM, the binding result (Human BCMA) was “no binding” and the EC50 (Human CD3ε) was 547 nM.

Source: patent US20220098307A1 (WUHAN YZY BIOPHARMA, published 2022)
